PMC3524126, “Live-Cell Visualization of Intracellular Interaction between a Nuclear Migration Protein (hNUDC) and the Thrombopoietin Receptor (Mpl)” (PLoS ONE, 2012)

Target: T1, Flag-Mpl-VN (full-length thrombopoietin receptor Mpl fused to the N-terminal half of Venus) (UniProt P40238 26-635)
T1 construct: Inserted between Flag and VN in pBiFC-VN173; also called pFlag-Mpl-VN; source: Cos-1, transiently transfected, in living cells; not shown: Flag, N-terminal, kept; Venus N-terminal fragment 1-173 (VN), C-terminal, kept
T1 sequence (looked up): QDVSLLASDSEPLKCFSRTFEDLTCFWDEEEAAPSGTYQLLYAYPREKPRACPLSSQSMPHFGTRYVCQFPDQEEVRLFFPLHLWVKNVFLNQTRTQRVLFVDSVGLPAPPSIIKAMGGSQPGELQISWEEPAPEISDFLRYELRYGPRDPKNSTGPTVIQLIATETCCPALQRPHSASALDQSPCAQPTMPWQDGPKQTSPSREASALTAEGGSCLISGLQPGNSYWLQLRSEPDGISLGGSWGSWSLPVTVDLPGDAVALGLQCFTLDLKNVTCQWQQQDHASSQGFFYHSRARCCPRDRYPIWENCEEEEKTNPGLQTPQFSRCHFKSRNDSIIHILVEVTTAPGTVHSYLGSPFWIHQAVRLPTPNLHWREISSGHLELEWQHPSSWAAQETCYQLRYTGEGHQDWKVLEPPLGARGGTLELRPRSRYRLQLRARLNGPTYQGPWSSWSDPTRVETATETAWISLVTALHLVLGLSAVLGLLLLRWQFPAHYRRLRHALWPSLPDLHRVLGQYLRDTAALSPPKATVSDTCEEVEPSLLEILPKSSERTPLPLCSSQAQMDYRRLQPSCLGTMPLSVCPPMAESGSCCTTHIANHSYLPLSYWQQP
Test: split reporter (BiFC, NanoBiT); Venus BiFC read by flow cytometry of Cos-1 cells, 12 h after transfection; 1x10^4 cells, Venus-positive cells against untransfected and empty-vector cells
Conditions: partners not purified

B1: HA-hNUDC(1-159)-VC (N-terminal half of hNUDC fused to the C-terminal half of Venus) (domain or fragment)
chain: not shown
notes: human NUDC (hNUDC), N-terminal half, residues 1-159; Cloned between HA and VC in pBiFC-VC155; also called pHA-hNUDC(1-159)-VC; source: Cos-1, transiently transfected, in living cells; not shown: HA, N-terminal, kept; Venus C-terminal fragment 155-238 (VC), C-terminal, kept
Q: For B1, which “fold increase of the Venus signal over untransfected Cos-1 cells” value is on record?
A: 16.2 fold

B2: HA-hNUDC-VC (full-length human NUDC fused to the C-terminal half of Venus) (natural protein)
chain: not shown
notes: Cloned between HA and VC in pBiFC-VC155; also called pHA-hNUDC-VC; phNUDC-VC; source: Cos-1, transiently transfected, in living cells; not shown: HA, N-terminal, kept; Venus C-terminal fragment 155-238 (VC), C-terminal, kept
Q: For B2, which “fold increase of the Venus signal over untransfected Cos-1 cells” value is on record?
A: 16.7 fold
